Target: Sec5 (bone marrow-derived macrophages) (mouse (endogenous in bone …, UniProt Q9D4H1 1-924))
Assay: co-IP

Sec5 (bone marrow-derived macrophages) (mouse, sequence (Q9D4H1 whole entry): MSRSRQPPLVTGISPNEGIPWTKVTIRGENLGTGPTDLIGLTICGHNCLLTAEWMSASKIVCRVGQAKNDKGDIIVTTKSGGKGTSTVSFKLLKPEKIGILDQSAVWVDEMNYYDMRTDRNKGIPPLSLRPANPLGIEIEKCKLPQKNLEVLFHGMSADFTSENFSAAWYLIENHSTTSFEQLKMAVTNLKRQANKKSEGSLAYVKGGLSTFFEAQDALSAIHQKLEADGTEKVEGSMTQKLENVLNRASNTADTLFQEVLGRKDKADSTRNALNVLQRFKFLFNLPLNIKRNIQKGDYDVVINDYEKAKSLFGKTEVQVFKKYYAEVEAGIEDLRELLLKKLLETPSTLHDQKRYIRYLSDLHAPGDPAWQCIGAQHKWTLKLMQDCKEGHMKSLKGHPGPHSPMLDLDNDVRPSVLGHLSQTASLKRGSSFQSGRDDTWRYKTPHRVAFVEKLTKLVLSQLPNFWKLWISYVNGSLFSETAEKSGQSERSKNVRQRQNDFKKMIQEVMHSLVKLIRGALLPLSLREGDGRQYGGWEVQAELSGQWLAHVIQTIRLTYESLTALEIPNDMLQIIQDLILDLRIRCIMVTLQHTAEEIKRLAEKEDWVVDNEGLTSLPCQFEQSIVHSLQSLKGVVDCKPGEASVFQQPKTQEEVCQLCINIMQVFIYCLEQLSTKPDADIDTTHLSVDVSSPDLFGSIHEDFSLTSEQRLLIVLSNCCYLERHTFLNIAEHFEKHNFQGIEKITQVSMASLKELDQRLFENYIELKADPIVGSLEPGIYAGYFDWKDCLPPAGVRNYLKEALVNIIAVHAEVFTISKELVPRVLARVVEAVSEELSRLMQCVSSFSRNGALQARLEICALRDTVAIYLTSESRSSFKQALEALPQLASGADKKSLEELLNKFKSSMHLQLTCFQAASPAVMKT

B1: Exo84 (bone marrow-derived macrophages) (natural protein, UniProt Q6PGF7 1-716, looked up)
chain: MSDSGASRLRRQLESGGFEARLYVKQLSQQSDGDRDLQEHRQRVQALAEETAQNLKRNVYQNYRQFIETAREISYLESEMYQLSHLLTEQKSSLESIPLALLPAAAAGASAGEDTAGAGPRERGAVQAGFLPGPAGVPREGSGTGEEGKQRTLTTLLEKVEGCRDLLETPGQYLVYNGDLVEYDADHMAQLQRVHGFLMNDCLLVATWLPQRRGMYRYNALYPLDRLAVVNVKDNPPMKDMFKLLMFPESRIFQAENAKIKREWLEVLEETKRALSDKRRREQEEAAAPRAPPPVTSKGSNPFEDEDDEELATPEAEEEKVDLSMEWIQELPEDLDVCIAQRDFEGAVDLLDKLNHYLEDKPSPPPVKELRAKVDERVRQLTEVLVFELSPDRSLRGGPKATRRAVSQLIRLGQCTKACELFLRNRAAAVHTAIRQLRIEGATLLYIHKLCHVFFTSLLETAREFETDFAGTDSGCYSAFVVWARSAMGMFVDAFSKQVFDSKESLSTAAECVKVAKEHCQQLGEIGLDLTFIIHALLVKDIQGALHSYKEIIIEATKHRNSEEMWRRMNLMTPEALGKLKEEMKSCGVSNFEQYTGDDCWVNLSYTVVAFTKQTMGFLEEALKLYFPELHMVLLESLVEIILVAVQHVDYSLRCEQDPEKKAFIRQNASFLYETVLPVVERRFEEGVGKPAKQLQDLRNASRLLRVNPESTTSVV
fold increase of the association in Tipe2-/- cells over wild type cells: ~3 fold
